Series [1] is described as follows: Two-week thermal / pH stress stability by HIC and peptide mapping. The series is classed as physicochemical. The settings on record: 4° C., 25° C., 40° C. for 15 days; high pH treatment. As for the experimental part:
A two-week stability assay was performed by incubating Ab3 and Ab4 at 4° C., 25° C., and 40° C. for 15 days, after which the antibodies were analyzed by […] (HIC). Briefly, 25 micrograms of the indicated antibody were injected onto a Tosoh TSKgel Phenyl-5PW 7.5 mm ID×7.5 cm 10-micron column (Catalog #07573) on a Waters ARC HPLC/UPLC system. […] This hydrophilic pre-peak was indicative of a potential site of post-translational modification (e.g., oxidation or deamidation). Peptide mapping was subsequently performed to identify which amino acids were modified in each antibody upon exposure to stress (high pH, low pH, and oxidative stress). The peptide mapping analysis identified a potential site of deamidation at an asparagine in CDR-L1 (N30 position) in response to high pH conditions (e.g., pH 8 or greater).
Accordingly, variants of Ab3 and Ab4 were generated in which the asparagine in CDR-L1 (e.g., at position 30B) was substituted with a serine. The resulting antibodies were named Ab7 and Ab5 respectively.

The target in series [2] is T1, rhesus CD45 ectodomain (Macaca mulatta, UniProt A0A1D5R142).
T1 construct: purified human, rhesus or cynomolgus CD45 ectodomain
T1 sequence (A0A1D5R142 26-581): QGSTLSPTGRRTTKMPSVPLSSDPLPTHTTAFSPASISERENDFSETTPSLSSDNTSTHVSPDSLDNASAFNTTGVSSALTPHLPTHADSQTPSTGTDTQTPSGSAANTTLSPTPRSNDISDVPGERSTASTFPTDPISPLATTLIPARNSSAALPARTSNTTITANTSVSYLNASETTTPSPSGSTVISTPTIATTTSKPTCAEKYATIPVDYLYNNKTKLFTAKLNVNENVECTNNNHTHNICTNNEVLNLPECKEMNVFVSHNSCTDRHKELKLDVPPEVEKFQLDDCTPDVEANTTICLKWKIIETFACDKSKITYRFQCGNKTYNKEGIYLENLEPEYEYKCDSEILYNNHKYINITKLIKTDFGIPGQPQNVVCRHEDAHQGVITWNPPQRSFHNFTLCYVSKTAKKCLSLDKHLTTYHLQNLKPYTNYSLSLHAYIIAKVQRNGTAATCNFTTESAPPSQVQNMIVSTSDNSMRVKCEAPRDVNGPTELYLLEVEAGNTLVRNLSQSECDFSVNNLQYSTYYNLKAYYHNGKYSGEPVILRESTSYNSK
Nature of the series: Biolayer interferometry (BLI, Octet) binding of immobilized IgG to purified CD45 ectodomain. The following applies: Table 2, Rhesus CD45; for Kd: 50 nM antigen (Ab1: 300 nM). The method, then:
(§1) Antibody binding studies were performed at 25° C. in 1×PBS supplemented with 0.1% w/v bovine serum albumin with a Pall ForteBio Octet Red96 using biolayer interferometry (BLI).
The apparent monovalent affinity (KD), apparent association rate (KON), and apparent dissociation rate (KOFF) were determined by local full fitting with a 1:1 binding model as calculated by ForteBio data analysis software version 10 of each IgG to purified human, cynomolgus or rhesus CD45 ectodomain. […] Binding was confirmed using […]
On the technique in general: BLI is a label-free optical method that tracks binding on a fibre tip over time.

The target in series [3] is T2, human CD45 ectodomain (Homo sapiens, UniProt P08575).
T2 construct: purified human, rhesus or cynomolgus CD45 ectodomain
T2 sequence (P08575 26-577): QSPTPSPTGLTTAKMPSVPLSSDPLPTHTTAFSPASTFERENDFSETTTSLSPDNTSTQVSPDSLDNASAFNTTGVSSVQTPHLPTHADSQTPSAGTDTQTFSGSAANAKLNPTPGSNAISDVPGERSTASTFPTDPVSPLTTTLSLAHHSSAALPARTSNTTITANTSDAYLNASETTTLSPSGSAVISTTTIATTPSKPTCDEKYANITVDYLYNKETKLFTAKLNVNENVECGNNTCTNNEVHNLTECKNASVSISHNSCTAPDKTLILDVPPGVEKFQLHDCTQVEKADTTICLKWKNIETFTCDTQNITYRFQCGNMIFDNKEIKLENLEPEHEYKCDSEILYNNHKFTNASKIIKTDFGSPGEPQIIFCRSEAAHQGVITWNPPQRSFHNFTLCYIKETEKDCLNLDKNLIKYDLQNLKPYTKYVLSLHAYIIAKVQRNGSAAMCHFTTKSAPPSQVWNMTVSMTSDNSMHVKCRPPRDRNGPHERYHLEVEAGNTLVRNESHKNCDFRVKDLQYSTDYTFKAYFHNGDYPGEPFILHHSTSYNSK
Described as above. The following applies: Table 2, Human CD45. The method, then:
as §1
(§2) The apparent monovalent affinity (KD), apparent association rate (KON), and apparent dissociation rate (KOFF) were determined by local full fitting with a 1:1 binding model as calculated by ForteBio data analysis software version 10 of each IgG to purified human, cynomolgus or rhesus CD45 ectodomain. […] Binding was confirmed using
Briefly, antibody binding studies were performed at 25° C. in 1×PBS supplemented with 0.1% w/v bovine serum albumin with a PALL FORTEBIO OCTET RED96 using biolayer interferometry (BLI). Each purified antibody was immobilized onto anti-human Fc biosensors (AHQ; PALL FORTEBIO 18-5001) and incubated with 100 nM of purified human or 300 nM of cynomolgus CD45 ectodomain.
(§3) The apparent monovalent affinity (KD), apparent association rate (KON), and apparent dissociation rate (KDIS or KOFF) were determined by local full fitting with a 1:1 binding model as calculated by FORTEBIO data analysis software version 10. […] Each of the selected humanized antibodies AbA, AbB, and AbC was able to cross react with human and cynomolgus CD45.

Series [4] deals with cynomolgus CD45 ectodomain. Described as above. The settings on record: Table 2, Cynomolgus CD45; for Kd: 50 nM antigen (Ab1: 300 nM). The method, then: as §1, §2
Briefly, antibody binding studies were performed at 25° C. in 1×PBS supplemented with 0.1% w/v bovine serum albumin with a PALL FORTEBIO OCTET RED96 using biolayer interferometry (BLI). […]
as §3

We go through two molecules from patent publication US12209135B2, “Anti-CD45 antibodies and conjugates thereof” (priority 2019, dated 2025).

cynomolgus CD45 ectodomain, sequence (as listed by the source): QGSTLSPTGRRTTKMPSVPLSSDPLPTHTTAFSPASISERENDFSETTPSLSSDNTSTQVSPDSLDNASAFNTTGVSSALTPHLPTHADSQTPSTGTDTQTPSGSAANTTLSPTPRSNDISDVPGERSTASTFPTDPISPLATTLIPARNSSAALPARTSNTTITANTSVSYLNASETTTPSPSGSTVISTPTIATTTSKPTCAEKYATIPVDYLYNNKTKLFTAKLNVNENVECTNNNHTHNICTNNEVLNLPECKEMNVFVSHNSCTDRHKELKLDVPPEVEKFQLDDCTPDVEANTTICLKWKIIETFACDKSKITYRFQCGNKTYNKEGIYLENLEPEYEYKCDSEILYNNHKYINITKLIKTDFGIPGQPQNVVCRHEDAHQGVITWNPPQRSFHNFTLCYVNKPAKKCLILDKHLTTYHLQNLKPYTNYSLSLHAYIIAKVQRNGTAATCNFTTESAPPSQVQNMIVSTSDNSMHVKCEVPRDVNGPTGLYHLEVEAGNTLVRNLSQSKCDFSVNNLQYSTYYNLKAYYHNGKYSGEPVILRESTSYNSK

B1: Ab3: affinity matured human anti-CD45 IgG derived from Ab1; VH SEQ ID NO:21, VL SEQ ID NO:25 (antibody, V domains shown)
VH: QVQLVESGGGLVKPGGSLRLSCAASGFTFGGYSMNWVRQAPGKGLEWVSYISISGATITYADSVKGRFTISRDNAKNSLYLQMNSLRAEDTAVYYCARGGQYYYDSSDYGEVAFDIWGQGTMVTVSS
VL: DIVMTQSPLSLPVTPGEPASISCRSSQSLVSNGYNYLDWYLQKPGQSPQLLIYFGSSRASGVPDRFSGSGSGTDFTLKISRVEAEDVGVYYCMQRRRTPPFTFGGGTKVEIK
Usually Kd stands for the equilibrium constant for the complex coming apart. Low values mean higher affinity, high ones lower affinity. For the molecule B1, the “HIC hydrophilic pre-peak (deamidated species)” value in series [1] was “hydrophilic pre-peak that increased as a function of thermal stress”. In series [2], the “Kdis” value was 0.000222 s⁻¹, the “Kon” value is 135000 M⁻¹ s⁻¹ and the Kd came out at 1.65 nM. Besides, in series [3], the “Kdis” value came to 0.000225 s⁻¹ and the “Kon” value worked out at 260000 M⁻¹ s⁻¹. In series [4], the “Kdis” value turned out to be 0.000192 s⁻¹; the “Kon” value was 120000 M⁻¹ s⁻¹; the affinity, expressed as Kd, was 1.61 nM.

B2: Ab4: affinity matured human anti-CD45 IgG derived from Ab1; VH SEQ ID NO:31, VL SEQ ID NO:35 (antibody, V domains shown)
VH: EVQLVESGGGLVQPGGSLRLSCAASGFTFEAYSMNWVRQAPGKGLEWVSYISLSGATIHYADSVKGRFTISRDNAKNSLYLQMNSLRAEDTAVYYCARGGQYYYTSSDYGEVAFDIWGQGTMVTVSS
VL: DIVMTQSPLSLPVTPGEPASISCRSSQSLVSNGYNYLDWYLQKPGQSPQLLIYFGSSRASGVPDRFSGSGSGTDFTLKISRVEAEDVGVYYCMQRRRTPWSFGGGTKVEIK
As for B2, in series [1], the “HIC hydrophilic pre-peak (deamidated species)” value is on record as “hydrophilic pre-peak that increased as a function of thermal stress”. In series [2], the “Kdis” value was 0.000102 s⁻¹; the “Kon” value came out at 118000 M⁻¹ s⁻¹; the affinity, expressed as Kd, was 0.867 nM. Moreover, in series [3], the “Kdis” value is 3.28e-06 s⁻¹ and the “Kon” value was 236000 M⁻¹ s⁻¹. In series [4], the “Kdis” value amounted to 7.89e-05 s⁻¹, the “Kon” value came to 110000 M⁻¹ s⁻¹ and the Kd is 0.721 nM.
